The assay deals with BG02 hESCs. Briefly: QRT-PCR of mesendoderm, definitive endoderm and other lineage transcripts in hESCs differentiated in defined media. In kind it is cell-based, human. The settings on record: FIG. 7; Wnt3a 25 ng/ml; over 72 hours of treatment. On the procedure:
For DE differentiation, media was replaced after ˜18-24 hours with differentiation media (a), in the presence or absence of Wnt3a (25 ng/ml). RNA was prepared from cultures at times indicated and subject to QRT-PCR analysis of T, MixL1, GSC, Sox17 and CXCR4 transcripts. QRT-PCR reactions are normalized to GAPDH control. ‘Assays on demand’ QRT-PCR reactions were from Applied Biosystems and have been described previously (McLean et al., 2007).
BG02 hESCs were plated in defined conditions (a) and after 18 hours media was switched to differentiation media (a) with Wnt3a (25 ng/ml) for the first 24 hours. The time course proceeded for 96 hours. Untreated hESCs (96 hours) or cells in differentiation media (a) were collected at 24, 48, 72 and 96 hours for QRT-PCR analysis. ‘Assays on demand’ QRT-PCR reactions were from Applied Biosystems and have been described previously (McLean et al., 2007).
Culture of hESCs: Methods: hESCs are preferably grown in MEF-CM (details from previous filings) or defined media using Matrigel (1:200 dilution) as a growth matrix (for example). Cells are passaged manually or by using enzymatic methods such as collagenase or accutase and typically plated at 1×10^6 per 60 mm dish for 12-24 hours in hESC media then media is changes to promote DE differentiation (see ‘Differentiation media’ below). During differentiation, ‘differentiation media’ is replaced every day. […]

B1: Wnt3a: growth factor Wnt3a (25 ng/ml, R&D Systems) (protein, UniProt P56704 19-352, looked up)
Protein Wnt-3a: SYPIWWSLAVGPQYSSLGSQPILCASIPGLVPKQLRFCRNYVEIMPSVAEGIKIGIQECQHQFRGRRWNCTTVHDSLAIFGPVLDKATRESAFVHAIASAGVAFAVTRSCAEGTAAICGCSSRHQGSPGKGWKWGGCSEDIEFGGMVSREFADARENRPDARSAMNRHNNEAGRQAIASHMHLKCKCHGLSGSCEVKTCWWSQPDFRAIGDFLKDKYDSASEMVVEKHRESRGWVETLRPRYTYFKVPTERDLVYYEASPNFCEPNPETGSFGTRDRTCNVSSHGIDGCDLLCCGRGHNARAERRREKCRCVFHWCCYVSCQECTRVYDVHTCK
Consider B1, for which the “amount of CXCR4 mRNA produced, presence versus absence of Wnt3a” value was “improves the amount of CXCR4 mRNA produced”.
